The text below walks through data of the nanobody polyreactivity screen of Harvey et al. (2022).

This data set can be described thus: yeast display, Sf9 membrane polyspecificity reagent, FACS + sequencing; frameworks hold sequencing errors. The method, boiled down:
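Galactose induction of a Saccharomyces cerevisiae BJ5465 synthetic nanobody display library ran 36–48 hours. The cells were then stained for 1 hour at 4 °C with 10% biotinylated, detergent-solubilized Sf9 membrane reagent, pulled down on streptavidin microbeads and FACS-sorted into low and high (top ~1%) gates on expression and reagent-binding fluorescence. Labels for polyreactivity follow the gate of origin.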
Take “QVQLVESGGGLVKAGGSLRLSCAASGSTNDRYAMGLYRQAPGKEREFVAAITKRGGSTYYADSVKGRFTISRDNAKITVYLQMNSLKPEDTAVYYCGARYGRGSAYTEYEYWGQGTQVTVSS”: the “polyreactivity (PSR sort gate)” value is “high polyreactivity”. On to “QVQLVESGGGLVKAGGSLRLSCADSGRTFYINAMGWYRQAPGKERELVAAISNYGSSTYYADTVKGRFTISRDNAKYTVYLLMISLKPVDSAVYYCAASYGYGGDYDYWGQGTQGTVSS”, for which the “polyreactivity (PSR sort gate)” value was “high polyreactivity”. As to “QVQLVESGGGLVKAGGSLRLSCGASGSIIVRYAMGWYRQAPGKERELVASISKRGGSTYYADSVKGRFTISRDNAKNTVYLQMNSLKPEDTEVYYCAAVCYYLVKFDYWGLGTQVTVSS”, the “polyreactivity (PSR sort gate)” value is reported as “high polyreactivity”. The entry for “QVQLVESGGGLVKAGGSLRLSSAATGSTFWEYVMGWYRQPPGKERELVAAITTNDDSTYYADSVKGRFTISRDNAKKTVYLQMNSLKPEDTAVYYCNADQITGQFDYWGQGTQVTVSS” is “low polyreactivity”; for “QVQLVESGGGLVKAGVSLRLSCAASGSIFVGYAMGWYRQAPGKERELVAAIRSGGSTKYADSVKGRFTISRDNAKNTVYLQMNSLKPEDTAVYYCNVEVHPYYWVDNFHRYPVLHNYWGQGTQVTVSS” it is “low polyreactivity”; for “QVQLVESGGGLVKAGVSLRLSSDASGRTFALYAMGWYRQAPGKERELVASIRGGGGTNYADSVKGRFTISRDNAKNTVYLQMNSLKPEDTAVYYCAARGYGYRGYYYWGQGTQVTVSS” it is “high polyreactivity”. The entry for “QVQLVESGGGLVLAGGRLRLSCAASGRNFYGYAMGWYRQAPGKERELVAAISYGGGSTYYADSVKGRFTISRDNAKKTVYLQMNSLKPEDTAVYYCNDFSAYMGQYGYWGQGTQVTVSS” is “high polyreactivity”; for “QVQLVESGGGLVLAGGRLRLSCAASGRTFFDYTMGWYSQAPGKEREFVARISSRTGRTYYADSVKGRFTISRDNEKNTDDLQMNSLKPDDTAVYYCNAVSQYSAFDYWGQGTQVTVSS” it is “high polyreactivity”; for “QVQLVESGGGLVLAGGRLRLSCADYRSIFAGYAMGWYRQAPGKERELVAAISSSGGRTYYADSVKGRFTISRDNAKNTVYLQMNSLKPEDTAVYYCAVSTYEEEYWGQGTQVTVSS” it is “high polyreactivity”. “QVQLVESGGGLVLAGGSLLLSCAAAGSTFSQNAMGWYRQAPGKERELVAAITSGGITYYADSVKGRFTISRDNAKNSVYLQMNSLKPEDTAVYYCNADPIVSPYRLWTVTYYYWGQGTQVTVSS”: the “polyreactivity (PSR sort gate)” value is recorded as “low polyreactivity”. The value for “QVQLVESGGGLVLAGGSLRLRCAASGSNFYVNAMGWYRQAPWKEMELVAAISRRGGSTYYADSVKGRFTISRDNAKNTVYLQMNSLKPEDTAVYYCNKAMRGQAPSGPEYDYWGQGTQVTVSS” was “high polyreactivity”. On to “QVQLVESGGGLVLAGGSLRLSCAASGFTFLDNAMGWYRQAPGKERELVAAISGIGGSTSYADSVKGRFTISRDNAKNTVYLQMNSLKPEDTAVYYCATRLYKWSFTPKFEMDHWGQGTQVTVSS”, for which the “polyreactivity (PSR sort gate)” value was “low polyreactivity”. In the case of “QVQLVESGGGLVLAGGSLRLSCAASGITFKWYAMGWYRQAPGKERELVAAITSGGGTNYADSVKGRFTISRDNAKNTVYLQMNSLKPEDTAVYYCAARFYQLPWRRYDYWGQGTQVTVSS”, the “polyreactivity (PSR sort gate)” value is given as “high polyreactivity”. The value for “QVQLVESGGGLVLAGGSLRLSCAASGNTFRYYAMGWYRQAPGKERELVADITIGGSTYYADSVKGRFTISRDNAKNTVYLQMNSLKPEDTAVYYCATDPDWGYYDAPYGYWGQGTQVTVSS” was “low polyreactivity”. In the case of “QVQLVESGGGLVLAGGSLRLSCAASGRIFTSARGWYRQAPGKERELVAAISSSGGRTYYADSVKGRFTISRDNAKNTVYLQMNSLKPEDTAVYYCNTRPGSVFRAGGDYWGQGTQVTVSS”, the “polyreactivity (PSR sort gate)” value was “high polyreactivity”. As for “QVQLVESGGGLVLAGGSLRLSCAASGSTFFTNVMGWNRQAPGKERELVASITSGGSTNYADSVKGRFTITRDNAQNTVYLQMNSLKPEDTAVYYCAAVTRTITIYELDSWGQGTQVTVSS”, the “polyreactivity (PSR sort gate)” value was “low polyreactivity”. For the sequence “QVQLVESGGGLVLAGGSLSLTCAASGRTCWYYTMGWYRHAPGKARELVAAISSGGRTNYADSVKGRFTISRDNATNTVFLQMNSLKPEDTAVYYCATSRYYKYVERDYWGQGTQVTVSS”, the “polyreactivity (PSR sort gate)” value is “high polyreactivity”.

As for “QVQLVESGGGLVLAGRSLRLICAASGSIFVYNAMGWYRQAPGKERELVAAISWSGGRTYYADSVKGRFTISRDNAKNTVYLQMNSLKPEDTAVYYCAALYTLRGYYYGTEYDYWGQGTQVTVSS”, the “polyreactivity (PSR sort gate)” value is on record as “high polyreactivity”. Turning to “QVQLVESGGGLVPAGGSLLLSCAASGRTIYSYGMGWYRQAPGKERELVASISSSTGSTYYADSVKGRFTISRDNAKNTVYLQMNSLKPEDTAVYYCAKRYSWTRRYDYWGQGTQVTVSS”, the “polyreactivity (PSR sort gate)” value is reported as “high polyreactivity”. As for “QVQLVESGGGLVPAGGSLPLSCAASGSTFSGHTMGWYRQAPGQDWELVADINWSSGSTYYADSVKGRFTISRDNAKNNVYLQMHSLKPEDTALLYCAAVEPFSDFDYWGQGTQVTLSS”, the “polyreactivity (PSR sort gate)” value is listed as “low polyreactivity”. The entry for “QVQLVESGGGLVPAGGSLRLSCAASGFIFQWYAMGWYRQAPGKERELVAAISSSGGSTYYADSVKGRFTISRDNAKNTVYLQMNSLKPEDTAVYYCAAVWASYPYRGVDYWGQGTQVTVSS” is “high polyreactivity”; for “QVQLVESGGGLVPAGGSLRLSCAASGRIFWSNAMGWYRQAPGKERELVAAITWRGGSTYADSVKGRFTISRDNAKNTVYLQMNSLKPEDTAVFYCAASPSGWRYDYWGQGTQVTVSS” it is “high polyreactivity”; for “QVQLVESGGGLVPAGGSLRLSCAASGRIITINAIGWYRKAPGKERELVAAISNSGGRTYADSVKGRFTISRDNAKNTVYLQMNSLKPEDTAVYYCAKRYRFHFWGQGTQVTVSS” it is “low polyreactivity”. Take “QVQLVESGGGLVPAGGSLRLSCAASGRTFAGNAMGWYRPAPGTERELVAVISRGGSTYYADSVKGRFTISRDNAKNTVYLQMNSLKPEDTAVYYCAARLRTTSVRGRYDYWGQGTQVTVSS”: the “polyreactivity (PSR sort gate)” value is on record as “high polyreactivity”. The entry for “QVQLVESGGGLVPAGGSLRLSCAASGSIFKINAMGWYRQAPGKERELVATITWSTGTTYYADSVKGRFTISRDNAKNTVYLQMNSLKPEDTAVYYCATDGDSTKLDYWGQGTQVTVSS” is “low polyreactivity”; for “QVQLVESGGGLVPAGGSLRLSCAASGSIFVGYAMGWYRQAPGKERELVADITVGGGSTFYADSVKGRFTISRDNAKNTVYLQMTSLKPEDTAVYYCAKYAGVYEYDYWGQGTQVTVSS” it is “low polyreactivity”; for “QVQLVESGGGLVPAGGSLRLSCAASGSTFVGNAMGWYRQAPGKERELVAAISSGGSTNYADSVKGRFTISRDNAKNTVYLQMNSLKPEDTAVYYCNAVYFYWLYGFSYFATGITYDYWGQGTQVTVSS” it is “high polyreactivity”.

Turning to “QVQLVESGGGLVPAGGSLRLSCAASGSTFVRYVMGWYRQAPGKERELVAAISRRGGSTYYADSVKGRCTISRDIAKNTVYLQMNSLKPEDTAVYYCADSRGTRTTGYSSYDRFGYWGQGTQVTVSS”, the “polyreactivity (PSR sort gate)” value is on record as “high polyreactivity”. The value for “QVQLVESGGGLVPAGGSLRLSCAASGSTGFNAMGWYRQAPGKERELVAAINYSDGSTYYADSVKGRFTISRDNAKNTVYLQMNSLKPEDTAVYYCNAGSSKDDSYYSYGYWGQGTQVTVSS” was “low polyreactivity”; that for “QVQLVESGGGLVPAGGSLRLSCPAGGFIFGSNVMGWYRQAPGKEREFVAAITYGGVSTYYADSVKGRFTISRDNAKNTVYLQMNSLKPEDTAVYYCNTDRGKRLGKQASSKRYDYWGQGTQVTVSS” was “high polyreactivity”; that for “QVQLVESGGGLVQAAGSLRISCAASGLIFGWNAMGWYRQAPGKERELVAAITSGGSTYYADSVKGRFTISRDNAKNTVYLQMNSLKPEDTAVYYCAAVYVLGKTGRVYGKYGYWGQGTQVTVSS” was “high polyreactivity”. The entry for “QVQLVESGGGLVQAAGSLRISCAASGLIFNYYAMGWYRQAPGKERELVAAISKDGGSTYYADSVKGRFTISRDNAKNTVYLQMNSLKPEDTADFYCAARTFRISRMDYRGQGTQVTVSS” is “high polyreactivity”.

As for “QVQLVESGGGLVQAAGSLRLICAASGSTFEGNVMGWYRPAPGKERELVAAMSVRGGSTYYADSVKGRFTISRDNAKNTVYLQMNSLKQEDTEDYYCAKKYYRPFWEGDYWGQGTQVTVSS”, the “polyreactivity (PSR sort gate)” value is “low polyreactivity”. The entry for “QVQLVESGGGLVQAAGSLRLSCAASGFIFIYNAMGWYRQAPGKERELVAAITGSDGGTFYADSVKGRFTFSRDYAKNTVYLQINSLKPEDTAVYYCHADNGSRQSRDGYESWGQGTQVTVSS” is “low polyreactivity”; for “QVQLVESGGGLVQAAGSLRLSCAASGFIFLVYSMGWSRQAPGKARELVAAISASGGRTYYADSVKGRFTISRDNAKNTVYLQMNSLKPEDTAVYYCARLLPTPGKPILDYWGQGTQVTVSS” it is “low polyreactivity”. The value for “QVQLVESGGGLVQAAGSLRLSCAASGFTFEKYVMGRYRQAPGKEREFVAAITRSGGRTYYADSVKGRFTISRDNAKNTVYLQMNSLKPEYTAVYYCAAAFSRSDTGGGSWGQGTQVTVSS” was “high polyreactivity”; that for “QVQLVESGGGLVQAAGSLRLSCAASGFTFWLYAMGWYRQAPGSEREMVAAIRRGGGTNYADSVKGRFTISRDNAKNTVYLQMNSLKPEDTAVYYCAAAVLSYRHAHAGYYYAKGDYWGQGTQVTVSS” was “high polyreactivity”. As for “QVQLVESGGGLVQAAGSLRLSCAASGITLYWYAMGWSRQAPGKERELVATISRRGGTTYYADSVKGRFTISRDNAKNTVYLQMNSLKPEDTAVYYCAKAPDTQTSWSRQEGNYWGQGTQVTVSS”, the “polyreactivity (PSR sort gate)” value was “low polyreactivity”. For “QVQLVESGGGLVQAAGSLRLSCAASGLTFWKYTMGWNRQAPGKEWELVAAISISGTNTYYADSVKGRFTISRDNAKNTVYLQLNSLKPEDTAVYYCAAVRGYPPTNYYYWGPGTQVTVSS”, the “polyreactivity (PSR sort gate)” value was “high polyreactivity”. Consider “QVQLVESGGGLVQAAGSLRLSCAASGRIFTPYAMGWYRQAPGKERELVAVIRDGSTYYADSVKGRFTISRDNAKNTVYLQMNSLKPEDTAVYYCRYDIWVWWSGAYDYWGLGTQVTVSS”, for which the “polyreactivity (PSR sort gate)” value was “low polyreactivity”. “QVQLVESGGGLVQAAGSLRLSCAASGRTFHWYVMGWYRQAPGKESELDAAITRRGGSTYYADSVKGRFTISRDNAKNTVYLQLNSLKPEDTAVYYCAAVGNRRYYFGYDYWGQGTQVTVSS”: the “polyreactivity (PSR sort gate)” value was “high polyreactivity”.
